biological target: T1, KDM2B^F-box-LRRs/SKP1 dimer (UniProt Q8NHM5 1059-1336; P63208 2-163); test: ITC
T1 sequence (Q8NHM5 1059-1336, chain 1 of 2): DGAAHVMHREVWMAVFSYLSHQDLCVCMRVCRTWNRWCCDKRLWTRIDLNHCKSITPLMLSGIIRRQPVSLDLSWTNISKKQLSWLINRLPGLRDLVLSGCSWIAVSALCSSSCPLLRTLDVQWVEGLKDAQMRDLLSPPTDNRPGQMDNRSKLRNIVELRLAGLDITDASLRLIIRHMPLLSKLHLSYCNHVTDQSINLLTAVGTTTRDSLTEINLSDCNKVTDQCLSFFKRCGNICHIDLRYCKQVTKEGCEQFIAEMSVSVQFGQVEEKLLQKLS
T1 sequence (P63208 2-163, chain 2 of 2): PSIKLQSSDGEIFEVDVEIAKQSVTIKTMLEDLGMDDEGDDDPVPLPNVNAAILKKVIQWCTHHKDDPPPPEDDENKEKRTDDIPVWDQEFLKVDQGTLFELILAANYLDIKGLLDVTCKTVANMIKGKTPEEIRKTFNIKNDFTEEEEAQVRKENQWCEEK

Kd [nM]	Binder
240	BCOR^N1591/PCGF1^RAWUL dimer (complex) chain 1: DDDASGTWDFYGSSVCEPDDESGYDVLANPPGPEDQDDDDDAYSDVFEFEFSETPLLPCYNIQVSVAQGPRNWLLLSDVLKKLKMSSRIFRCNFPNVEIVTIAEAEFYRQVSASLLFSCSKDLEAFNPESKELLDLVEFTNEIQTLLGSSVEWLHPSDLASDNYW chain 2: LPFSSFDHSKAHYYRYDEQLNLCLERLSSGKDKNKSVLQNKYVRCSVRAEVRHLRRVLCHRLMLNPQHVQLLFDNEVLPDHMTMKQIWLSRWFGKPSPLLLQYSVK
250	BCOR^N1594/PCGF1^RAWUL dimer (complex) chain 1: ASGTWDFYGSSVCEPDDESGYDVLANPPGPEDQDDDDDAYSDVFEFEFSETPLLPCYNIQVSVAQGPRNWLLLSDVLKKLKMSSRIFRCNFPNVEIVTIAEAEFYRQVSASLLFSCSKDLEAFNPESKELLDLVEFTNEIQTLLGSSVEWLHPSDLASDNYW chain 2: LPFSSFDHSKAHYYRYDEQLNLCLERLSSGKDKNKSVLQNKYVRCSVRAEVRHLRRVLCHRLMLNPQHVQLLFDNEVLPDHMTMKQIWLSRWFGKPSPLLLQYSVK
270	BCOR^N1607/PCGF1^RAWUL dimer (complex) chain 1: EPDDESGYDVLANPPGPEDQDDDDDAYSDVFEFEFSETPLLPCYNIQVSVAQGPRNWLLLSDVLKKLKMSSRIFRCNFPNVEIVTIAEAEFYRQVSASLLFSCSKDLEAFNPESKELLDLVEFTNEIQTLLGSSVEWLHPSDLASDNYW chain 2: LPFSSFDHSKAHYYRYDEQLNLCLERLSSGKDKNKSVLQNKYVRCSVRAEVRHLRRVLCHRLMLNPQHVQLLFDNEVLPDHMTMKQIWLSRWFGKPSPLLLQYSVK

Further lines, the binder ahead of its results:

Binder	Kd [nM]
BCOR^N1624/PCGF1^RAWUL dimer (complex) chain 1: EDQDDDDDAYSDVFEFEFSETPLLPCYNIQVSVAQGPRNWLLLSDVLKKLKMSSRIFRCNFPNVEIVTIAEAEFYRQVSASLLFSCSKDLEAFNPESKELLDLVEFTNEIQTLLGSSVEWLHPSDLASDNYW chain 2: LPFSSFDHSKAHYYRYDEQLNLCLERLSSGKDKNKSVLQNKYVRCSVRAEVRHLRRVLCHRLMLNPQHVQLLFDNEVLPDHMTMKQIWLSRWFGKPSPLLLQYSVK	5930
BCOR^N1612/PCGF1^RAWUL dimer (complex) chain 1: SGYDVLANPPGPEDQDDDDDAYSDVFEFEFSETPLLPCYNIQVSVAQGPRNWLLLSDVLKKLKMSSRIFRCNFPNVEIVTIAEAEFYRQVSASLLFSCSKDLEAFNPESKELLDLVEFTNEIQTLLGSSVEWLHPSDLASDNYW chain 2: LPFSSFDHSKAHYYRYDEQLNLCLERLSSGKDKNKSVLQNKYVRCSVRAEVRHLRRVLCHRLMLNPQHVQLLFDNEVLPDHMTMKQIWLSRWFGKPSPLLLQYSVK	850

biological target: T1, KDM2B^F-box-LRRs/SKP1 dimer; test: ITC; remark: another data set of the same source

Kd [nM]	Binder
6350	BCOR^ANK-linker (residues 1461-1635) (domain or fragment, UniProt Q6W2J9 1461-1635, looked up) NAGETLLQRAARLGYEEVVLYCLENKICDVNHRDNAGYCALHEACARGWLNIVRHLLEYGADVNCSAQDGTRPLHDAVENDHLEIVRLLLSYGADPTLATYSGRTIMKMTHSELMEKFLTDYLNDLQGRNDDDASGTWDFYGSSVCEPDDESGYDVLANPPGPEDQDDDDDAYSD

Source: publication PMC11387744 (Communications Biology, 2024)
